According to paper PMC4141790, “RecA Protein Plays a Role in the Chemotactic Response and Chemoreceptor Clustering of Salmonella enterica” (PLoS ONE, 2014):

B1: RecA protein fused to a β-galactosidase truncation (ΔαRecA / ΔωRecA) (natural protein)
chain: MAIDENKQKALAAALGQIEKQFGKGSIMRLGEDRSMDVETISTGSLSLDIALGAGGLPMGRIVEIYGPESSGKTTLTLQVIAAAQREGKTCAFIDAEHALDPVYARKLGVDIDNLLCSQPDTGEQALEICDALARSGAVDVIVVDSVAALTPKAEIEGEIGDSHMGLAARMMSQAMRKLAGNLKQSNTLLIFINQIRMKIGVMFGNPETTTGGNALKFYASVRLDIRRIGAVKEGDNVVGSETRVKVVKNKIAAPFKQAEFQILYGEGINFYGELVDLGVKEKLIEKAGAWYSYNGEKIGQGKANATTWLKENPATAKEIEKRVRELLLSNQNATPDFAVDDSEGVAETNEDF
notes: RecA, S. enterica sv; Typhimurium; the recA gene was PCR-amplified and cloned (SphI/BamHI) into both pB2HΔα and pB2HΔω; One molecule for both fusions (Δα and Δω), since each protein stood in both positions of the two-hybrid system; also called Δα-recA fusion; Δω-recA fusion; source: two-hybrid fusion, co-expressed in E. coli MC1061 (pB2HΔα / pB2HΔω derivatives, 20 nM IPTG)
B2: CheW coupling protein fused to a β-galactosidase truncation (ΔαCheW / ΔωCheW) (natural protein)
chain: MTGMSNVSKLAGEPSGQEFLVFTLGNEEYGIDILKVQEIRGYDQVTRIANTPAFIKGVTNLRGVIVPIVDLRVKFCEGDVEYDDNTVVIVLNLGQRVVGIVVDGVSDVLSLTAEQIRPAPEFAVTLSTEYLTGLGALGERMLILVNIEKLLNSEEMALLDIAASHVA
notes: CheW coupling protein, S. enterica sv; Typhimurium; the cheW gene was PCR-amplified and cloned (SphI/BamHI) into both pB2HΔα and pB2HΔω; One molecule for both fusions (Δα and Δω), since each protein stood in both positions of the two-hybrid system; also called Δα-cheW fusion; Δω-cheW fusion; source: two-hybrid fusion, co-expressed in E. coli MC1061 (pB2HΔα / pB2HΔω derivatives, 20 nM IPTG)

Experiments:
[1] = molecular target: B2; test: two-hybrid; β-galactosidase Δα/Δω complementation (pB2HΔα/pB2HΔω) in E. coli MC1061; 37°C, samples 5 h after 20 nM IPTG; activity relative to the non-interaction control strain expressing ΔαAmyA and ΔωDnaE; details: partners not purified
[2] = molecular target: B1; test: as above; details: partners not purified

Row | Binder | relative β-galactosidase expression [1] | relative β-galactosidase expression [2]
1 | B1 | > 7 relative to the non-interaction control strain | –
2 | B2 | – | > 7 relative to the non-interaction control strain
